The numbers were not newly measured in PMC11182772, which cites them from elsewhere.

The target of this series is Scc1-SA2 (Homo sapiens) (UniProt O60216).
Scc1-SA2 (Homo sapiens), sequence (O60216 whole entry, chain 1 of 2): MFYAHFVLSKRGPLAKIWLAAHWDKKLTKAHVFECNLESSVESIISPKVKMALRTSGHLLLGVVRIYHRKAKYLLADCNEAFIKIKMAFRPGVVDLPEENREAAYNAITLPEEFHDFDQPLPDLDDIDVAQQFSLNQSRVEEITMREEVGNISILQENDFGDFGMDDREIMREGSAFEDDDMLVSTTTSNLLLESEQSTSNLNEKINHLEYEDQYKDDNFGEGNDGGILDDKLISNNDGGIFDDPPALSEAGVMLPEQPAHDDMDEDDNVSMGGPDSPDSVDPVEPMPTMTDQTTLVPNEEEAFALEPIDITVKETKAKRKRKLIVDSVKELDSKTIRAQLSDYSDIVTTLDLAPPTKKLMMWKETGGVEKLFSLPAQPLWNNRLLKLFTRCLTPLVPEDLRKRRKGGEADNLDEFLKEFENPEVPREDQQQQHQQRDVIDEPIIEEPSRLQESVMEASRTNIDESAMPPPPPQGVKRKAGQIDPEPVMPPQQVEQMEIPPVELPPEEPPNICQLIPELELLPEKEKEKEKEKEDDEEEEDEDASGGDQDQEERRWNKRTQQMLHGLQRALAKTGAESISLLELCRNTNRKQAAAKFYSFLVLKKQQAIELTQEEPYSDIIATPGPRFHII
Scc1-SA2 (Homo sapiens), sequence (Q8N3U4 whole entry, chain 2 of 2, further chain): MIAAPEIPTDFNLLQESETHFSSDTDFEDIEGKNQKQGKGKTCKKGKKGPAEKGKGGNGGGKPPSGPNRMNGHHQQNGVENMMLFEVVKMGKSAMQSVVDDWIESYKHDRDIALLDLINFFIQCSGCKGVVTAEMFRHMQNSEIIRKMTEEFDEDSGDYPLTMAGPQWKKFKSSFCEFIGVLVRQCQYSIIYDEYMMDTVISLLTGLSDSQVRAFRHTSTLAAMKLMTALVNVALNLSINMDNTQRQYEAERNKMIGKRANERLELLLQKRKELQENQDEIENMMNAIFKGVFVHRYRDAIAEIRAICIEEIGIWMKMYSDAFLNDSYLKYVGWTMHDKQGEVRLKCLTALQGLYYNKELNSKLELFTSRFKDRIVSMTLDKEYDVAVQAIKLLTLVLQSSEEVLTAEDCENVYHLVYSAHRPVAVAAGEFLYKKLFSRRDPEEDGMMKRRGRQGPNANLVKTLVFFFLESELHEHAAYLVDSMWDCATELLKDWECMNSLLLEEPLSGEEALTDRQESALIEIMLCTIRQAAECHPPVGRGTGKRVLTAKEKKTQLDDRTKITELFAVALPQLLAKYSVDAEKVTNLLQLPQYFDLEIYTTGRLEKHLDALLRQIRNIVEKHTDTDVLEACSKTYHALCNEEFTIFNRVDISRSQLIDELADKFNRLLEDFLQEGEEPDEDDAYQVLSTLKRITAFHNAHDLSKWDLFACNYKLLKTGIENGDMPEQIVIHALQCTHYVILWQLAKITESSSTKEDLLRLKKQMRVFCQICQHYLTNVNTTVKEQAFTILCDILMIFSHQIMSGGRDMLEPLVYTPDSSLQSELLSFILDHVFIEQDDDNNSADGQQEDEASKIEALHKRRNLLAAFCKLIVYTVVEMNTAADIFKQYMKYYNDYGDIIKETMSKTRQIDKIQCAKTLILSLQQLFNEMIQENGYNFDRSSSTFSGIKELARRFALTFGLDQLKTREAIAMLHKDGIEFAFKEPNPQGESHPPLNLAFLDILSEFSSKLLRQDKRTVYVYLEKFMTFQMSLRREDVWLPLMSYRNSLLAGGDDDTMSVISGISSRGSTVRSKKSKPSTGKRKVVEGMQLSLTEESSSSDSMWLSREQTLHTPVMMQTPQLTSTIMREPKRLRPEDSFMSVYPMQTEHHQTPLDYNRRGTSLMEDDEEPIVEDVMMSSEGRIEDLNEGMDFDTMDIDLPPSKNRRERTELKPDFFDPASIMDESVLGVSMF

The Kd is the constant that tells how readily two partners part at equilibrium. “CENP-U DVFDF motif peptide (from UniProt Q71F23)”: the Kd was 4 µM.
